Measurements from publication PMC4943861 (ACS chemical biology, 2015).

B1: SNAPtag-4: monovalent conjugate of 4 to SNAPtag (protein)
chain: GPGSDKDCEMKRTTLDSPLGKLELSGCEQGLHEIIFLGKGTSAADAVEVPAPAAVLGGPEPLMQATAWLNAYFHQPEAIEEFPVPALHHPVFQQESFTRQVLWKLLKVVKFGEVISYSHLAALAGNPAATAAVKTALSGNPVPILIPCHRVVQGDLDVGGYEGGLAVKEWLLAHEGHRLGKR
modifications: SNAPtag is engineered
B2: SNAP(pE59)-4: bivalent inhibitor of activation loop-phosphorylated ERK2: SNAP(pE59) labeled with 4 (protein)
chain: GPGSDKDCEMKRTTLDSPLGKLELSGCEQGLHEIIFLGKGTSAADAVEVPAPAAVLGGPEPLMQATAWLNAYFHQPEAIEEFPVPALHHPVFQQESFTRQVLWKLLKVVKFGEVISYSHLAALAGNPAATAAVKTALSGNPVPILIPCHRVVQGDLDVGGYEGGLAVKEWLLAHEGHRLGKRDLGKKLLEAARAGQDDEVRILMANGADVNALDEDGLTPLHLAAQLGHLEIVEVLLKYGADVNAEDNFGITPLHLAAIRGHLEIVEVLLKHGADVNAQDKFGKTAFDISIDNGNEDLAEILQKLN

Biological target: activation loop-phosphorylated ERK2 (Homo sapiens, UniProt P28482)
Assay: In vitro activity assay against activation loop-phosphorylated ERK2
Assay type: biochemical
Conditions: read-out: IC50 against ERK2, triplicate

Sequence of activation loop-phosphorylated ERK2 (P28482 whole entry): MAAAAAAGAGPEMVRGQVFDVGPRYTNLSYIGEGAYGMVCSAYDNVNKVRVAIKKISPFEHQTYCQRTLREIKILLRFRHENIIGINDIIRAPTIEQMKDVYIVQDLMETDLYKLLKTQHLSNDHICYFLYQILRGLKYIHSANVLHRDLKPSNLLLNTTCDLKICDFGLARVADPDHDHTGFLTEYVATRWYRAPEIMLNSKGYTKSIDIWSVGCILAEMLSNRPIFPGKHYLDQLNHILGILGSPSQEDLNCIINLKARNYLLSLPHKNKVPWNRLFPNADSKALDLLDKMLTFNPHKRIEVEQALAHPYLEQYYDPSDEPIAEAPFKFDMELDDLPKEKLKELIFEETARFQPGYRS

IC50 | Molecule
3900 nM | B1
0.8 nM | B2
